Experimental data reported in the supplement of paper PMC9732359.
± gives the uncertainty stated by the source.

experiment: protein stability index of a GFP-peptide fusion (yeast GPS) (PSI 1-4); higher = more stable; sorted into four equal gates, so the index is relative within each strain; conditions: pdr5∆
Outline: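 For each peptide, the protein stability index sums the read frequency in every gate after multiplying it by the gate number. Read frequencies came from plasmids that were PCR-amplified from each gate and Illumina-sequenced, with reads assigned to strains by barcodes. The gates were four equal bins of GFP/Cherry fluorescence ratio applied to mid-log yeast in leucine-free medium carrying a pooled library of tiled 17-residue yeast protein peptides fused downstream of GFP on a Cherry-expressing plasmid.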

Sequence | protein stability index
DPPIIIFINYKQTADWL [PRP28] | 1.61 ± 0.048
DPPKGILLYGPPGTGKT [RPT1] | 2.71 ± 0.28
DPSLNLKLLAKSHVLLA [BRR2] | 2.44 ± 0.1

same assay, conditions: san1∆

Sequence | protein stability index
DDDEIVMPVPNVRSSVL [SKP1] | 2.45 ± 0.062
DDENEPKRKRRLPVSED [YOR098C/NUP1] | 3.09 ± 0.087
DDFTNELKAELDRYKRE [SEM1] | 2.97 ± 0.11
DDIFIPQNMLFEGCYYT [RPC25] | 2.43 ± 0.12
DDIFIRYLTLLSNEFTA [ECM29] | 2.44 ± 0.074
DDLPYYVNALADVLYKT [QCR2] | 2.63 ± 0.045
DDPSKVRLLCRSDGMGN [YLR335W/NUP2] | 2.98 ± 0.16
DDQLKQRRQNIRDLEKL [RPT4] | 3.12 ± 0.13
DDSLNRLAQNDGLLKNV [RPS21A] | 3.16 ± 0.13
DDYEDQDDDDYVDTATA [IRR1] | 2.93 ± 0.093
DDYILSGESVMDRDSES [SRB4] | 3.34 ± 0.15
DEEASYKLGKVKKVQLG [RPS4A] | 2.9 ± 0.063
DEEELGQRTAYHSKRDA [RPB2] | 3.31 ± 0.09
DEEESNDEKQKAQDVDV [RPN13] | 3.34 ± 0.044
DEEIIQLHFSLLDEEAE [RPO21] | 2.89 ± 0.083
DEGKEIPATIFDKVIYH [TAF14] | 3.15 ± 0.041
DEIHIPAPSKPVIDYEL [BRR2] | 2.88 ± 0.059
DEKDYLTNQQPKNLSTP [CSE2] | 3.21 ± 0.059
DELDQEILNLSTQELQT [RPT5] | 3.14 ± 0.06
DELRKQELISKAFTNWN [ISW2] | 2.4 ± 0.089
DENDSKKNNAASELANP [YAR002W/NUP60] | 3.05 ± 0.047
DENKDDELVKLLLDNGF [SRP68] | 3.36 ± 0.12
DEPMTTFYKCVNCGHRW [RPC11] | 2.17 ± 0.15
DEQQREDNNDAVNSIMA [ECM29] | 3.07 ± 0.1
DESLKDEATVPNTRDAE [SWI3] | 3.19 ± 0.13
DESNDIDMIADENGTNS [RPC37] | 2.88 ± 0.11

Sequence | protein stability index
DEVTIRRTVGLKKDDYQ [SMC3] | 2.32 ± 0.13
DFDGDEMNLHVPQTEEA [RPO31] | 2.99 ± 0.063
DFDLFKEVLPDLQNLNL [YJL039C/NUP192] | 3.19 ± 0.07
DFIQNVGRLWDQTFPIN [ECM29] | 3.31 ± 0.043
DFKPPYIYSHVNKVPQN [SWP82] | 2.79 ± 0.14
DFLRKATAFNKTRGPFH [RPL16A] | 3.04 ± 0.086
DFVRKGGLQKGKLVVSQ [SIR3] | 2.75 ± 0.055
DGAYALSASWDKTLRLW [ASC1] | 3.18 ± 0.093
DGDASKPAFSFGAKSDE [YJL041W/NSP1] | 3.15 ± 0.037
DGFDPRGNIKVMFATNR [RPT1] | 3.26 ± 0.091
DGFNKTFHDELNLKFKE [YML103C/NUP188] | 2.69 ± 0.087
DGKGAVYSFDPVGSYER [PRE7] | 2.94 ± 0.15
DGLLEYLEDIIGTANYK [SMC4] | 2.6 ± 0.078
DGSAIEDDDIRSRMLPT [SNF5] | 3.46 ± 0.12
DHEFVLISLIMTTWRKL [YMR129W/POM152] | 1.1 ± 0.14
DHIAIDWEDEEKYEDED [DSN1] | 2.55 ± 0.09
DHINWEHIKQDYVASLN [NSL1] | 2.72 ± 0.058
DHLVSSIPMGGQSINDS [ARP9] | 3.08 ± 0.068
DHTVDEIDHVEYYVMMD [SRB8] | 2.96 ± 0.081
DHVDGSSEFVSQDTKVI [RRP46] | 2.44 ± 0.053
DHYESNQLVAKLLLLRI [SRB8] | 2.84 ± 0.1
DIDGIMDNPRKLSKILR [SNU114] | 2.94 ± 0.058
DIFITPTPVVTISEKEQ [SSN2] | 1.48 ± 0.12
DIIWLQRDLGLYVVGLF [RRP6] | 1.4 ± 0.1
DIKAPSTFENRNVGKTL [RPS1A] | 3 ± 0.052
DIKVLKRQLIKERNQKF [YIL149C/MLP2] | 2.5 ± 0.091

Sequence | protein stability index
DILAKLFSLEKPNLNYF [SWI1] | 1.96 ± 0.063
DILSKLYLLLARVFEIW [SNF11] | 2.19 ± 0.07
DIPTIADEHFWADNYER [BRN1] | 3.34 ± 0.069
DIRKFLDGIYVSHKGFI [RPL9A] | 1.77 ± 0.16
DKKASMIISGSRDKTIK [ASC1] | 2.63 ± 0.096
DKLLDPTTVSYIFCISR [SCL1] | 3.181 ± 0.029
DKLSVSEISDGKLKRCS [SIN4] | 3.15 ± 0.1
DKSLDSSNASFNNQGKL [MED1] | 2.68 ± 0.035
DKYHEQWIKFLLHTLYL [SSN8] | 1.93 ± 0.13
DLDETTQTFNGSIFTHE [YML031W/NDC1] | 2.85 ± 0.038
DLETLTMHTKTYAAEIA [RPL32] | 2.42 ± 0.053
DLGIKYDPSIGIFGMDF [RPL11A] | 2.96 ± 0.039
DLIHKSEAFPSLQSCSV [SMC4] | 2.47 ± 0.067
DLISEILKWVQWSRIVL [MED1] | 3.08 ± 0.064
DLKASQRVCLRSDSYML [RPT6] | 2.92 ± 0.075
DLKKFTSTITKYKQLLL [RPN3] | 2.91 ± 0.066
DLKKKLNSLKDERSQGE [SMC4] | 3.06 ± 0.16
DLKLLFNTEAEQTVSAV [RGR1] | 3.33 ± 0.11
DLLKFENISLAEFILKN [BRR2] | 2.82 ± 0.062
DLLVIDSHKRIPDMSKN [SNU114] | 2.93 ± 0.053
DLNNAVQKRDEVKEQLG [SMC4] | 3.15 ± 0.046
DLPDTEGLELLGWIHTQ [PRP8] | 3.22 ± 0.051
DLPISSTDNEAITISNS [SMC1] | 2.7 ± 0.054
DLQYLGEFSGKNFSPTK [RRP6] | 3.19 ± 0.04
DLRLIKVPQQAAGKRIS [SMC1] | 1.1 ± 0.13
DLSADKPTSPFIDSICK [SRB8] | 1.76 ± 0.048

Sequence | protein stability index
DLSLNIHPIPSVTVSQG [YMR129W/POM152] | 1.98 ± 0.074
DLSYNFNVHEVPRAALE [YMR129W/POM152] | 2.85 ± 0.054
DLTFKLADILKANISLE [RPO21] | 2.46 ± 0.067
DLTQLLEKERSILDDIK [SMC4] | 2.66 ± 0.13
DMAILERYYELAFDKLN [ARP7] | 1.31 ± 0.16
DMAKLKKMMNTSDSEST [SWI3] | 1.94 ± 0.073
DMDAESNESQNGKDSEI [SMC3] | 2.89 ± 0.1
DMKEYDSDKGSKLNELK [SMC2] | 3.27 ± 0.072
DMLEHINLAMNESSLAL [SRB4] | 1.25 ± 0.15
DMPSLRLIDLSGCENIT [GRR1] | 2.45 ± 0.094
DNATLTELVDKANIFQV [SSN2] | 3.21 ± 0.085
DNDGFSFLMRQFTRFFL [ECM29] | 1.87 ± 0.075
DNDIMNLGSRTKNNTQA [SSN3] | 2.76 ± 0.028
DNIGEIDESLFNLLILS [YCG1] | 2.31 ± 0.16
DNVIVINHKINNKITQL [SIR3] | 2.08 ± 0.053
DNVSKNALDKLRNNLNS [YCG1] | 2.24 ± 0.29
DPALLRPGRIDRKIEFP [RPT6] | 3.05 ± 0.057
DPETTATQKESLEMVPK [RGR1] | 2.94 ± 0.048
DPGRYNKVCRIEAASTT [RPB8] | 2.48 ± 0.1
DPKFRRNHKHALHGTAK [RPL29] | 2.478 ± 0.024
DPKFVNSLLAKLKDSKK [YML103C/NUP188] | 1.99 ± 0.15
DPKTSLRIVKPTVSLTI [RPC82] | 2.56 ± 0.14
DPPIIIFINYKQTADWL [PRP28] | 1.9 ± 0.072
DPSLNLKLLAKSHVLLA [BRR2] | 1.79 ± 0.21

same assay, conditions: ubr1∆

Sequence | protein stability index
DDDEIVMPVPNVRSSVL [SKP1] | 2.48 ± 0.051
